According to paper PMC10397247:
One block for each binder: values may come before it.

How the values were obtained:
[1] = target: T1, P1mSN; assay: two-hybrid library CCNG1;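 further: natural log of median RNA to DNA barcode read ratio; higher means stronger binding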
T1 chain: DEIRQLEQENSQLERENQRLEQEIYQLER

[2] = target: T2, P7mSN; assay: two-hybrid library CCNG1;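 further: natural log of median RNA to DNA barcode read ratio; higher means stronger binding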
T2 chain: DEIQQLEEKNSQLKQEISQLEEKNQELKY

[3] = target: T3, P3mSN; assay: two-hybrid library CCNG1;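 further: natural log of median RNA to DNA barcode read ratio; higher means stronger binding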
T3 chain: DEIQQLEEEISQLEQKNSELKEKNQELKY

[4] = target: T4, P2mSN; assay: two-hybrid library CCNG1;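 further: natural log of median RNA to DNA barcode read ratio; higher means stronger binding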
T4 chain: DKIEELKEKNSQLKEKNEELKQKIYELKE

[5] = target: T5, P8mSN; assay: two-hybrid library CCNG1
T5 chain: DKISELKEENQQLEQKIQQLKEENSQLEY

[6] = target: T6, P4mSN; assay: two-hybrid library CCNG1
T6 chain: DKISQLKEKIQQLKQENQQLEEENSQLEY

[7] = target: T7, P9mSN; assay: two-hybrid library CCNG1
T7 chain: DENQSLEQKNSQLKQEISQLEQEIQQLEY

[8] = target: T8, P12mSN; assay: two-hybrid library CCNG1
T8 chain: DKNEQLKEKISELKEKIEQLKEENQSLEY

[9] = target: T9, P5mSN; assay: two-hybrid library CCNG1
T9 chain: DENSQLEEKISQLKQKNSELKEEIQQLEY

[10] = target: T10, P6mSN; assay: two-hybrid library CCNG1
T10 chain: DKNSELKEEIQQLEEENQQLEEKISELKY

[11] = target: T11, 4H754-bA; assay: two-hybrid library CCNG1
T11 chain: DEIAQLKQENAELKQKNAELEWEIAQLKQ

[12] = target: T12, 4H568-bA; assay: two-hybrid library CCNG1
T12 chain: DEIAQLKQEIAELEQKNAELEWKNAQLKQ

[13] = target: T13, 4H687-bA; assay: two-hybrid library CCNG1
T13 chain: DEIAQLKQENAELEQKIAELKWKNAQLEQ

[14] = target: T14, 4H908-bA; assay: two-hybrid library CCNG1
T14 chain: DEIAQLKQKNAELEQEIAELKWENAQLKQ

[15] = target: T15, 4H883-bA; assay: two-hybrid library CCNG1
T15 chain: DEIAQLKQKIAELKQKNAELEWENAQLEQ

[16] = target: T16, 4H953-bA; assay: two-hybrid library CCNG1
T16 chain: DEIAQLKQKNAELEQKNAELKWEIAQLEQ

[17] = target: T17, 4H717-bA; assay: two-hybrid library CCNG1
T17 chain: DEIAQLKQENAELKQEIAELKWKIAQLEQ

[18] = target: T18, O10-bS; assay: two-hybrid library CCNG1
T18 chain: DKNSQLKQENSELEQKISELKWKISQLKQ

[19] = target: T19, 4H967-bA; assay: two-hybrid library CCNG1
T19 chain: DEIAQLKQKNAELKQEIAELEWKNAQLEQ

[20] = target: T20, 4H850-bN; assay: two-hybrid library CCNG1
T20 chain: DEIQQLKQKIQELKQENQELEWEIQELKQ

[21] = target: T21, 4H607-bA; assay: two-hybrid library CCNG1
T21 chain: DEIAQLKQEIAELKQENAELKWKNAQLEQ

[22] = target: T22, 4H797-bA; assay: two-hybrid library CCNG1
T22 chain: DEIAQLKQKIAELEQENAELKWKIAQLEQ

[23] = target: T23, P5A-bA; assay: two-hybrid library CCNG1
T23 chain: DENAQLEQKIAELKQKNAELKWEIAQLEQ

[24] = target: T24, 4H918-bA; assay: two-hybrid library CCNG1
T24 chain: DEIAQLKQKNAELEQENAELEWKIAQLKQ

[25] = target: T25, 4H72-bA; assay: two-hybrid library CCNG1
T25 chain: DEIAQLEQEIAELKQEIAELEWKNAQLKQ

[26] = target: T26, 4H491-bA; assay: two-hybrid library CCNG1
T26 chain: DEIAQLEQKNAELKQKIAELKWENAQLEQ

[27] = target: T27, 4H342-bA; assay: two-hybrid library CCNG1
T27 chain: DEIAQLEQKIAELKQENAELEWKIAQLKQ

[28] = target: T28, 4H2937-bA; assay: two-hybrid library CCNG1
T28 chain: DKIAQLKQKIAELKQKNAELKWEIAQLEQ

[29] = target: T29, 4H48-bA; assay: two-hybrid library CCNG1
T29 chain: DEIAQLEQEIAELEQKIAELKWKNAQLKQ

[30] = target: T30, 4H2944-bA; assay: two-hybrid library CCNG1
T30 chain: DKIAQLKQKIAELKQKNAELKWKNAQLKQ

[31] = target: T31, 4H2883-bA; assay: two-hybrid library CCNG1
T31 chain: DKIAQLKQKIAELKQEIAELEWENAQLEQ

[32] = target: T32, 4H2937-bN; assay: two-hybrid library CCNG1
T32 chain: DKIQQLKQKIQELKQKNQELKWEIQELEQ

[33] = target: T33, 4H342-bN; assay: two-hybrid library CCNG1
T33 chain: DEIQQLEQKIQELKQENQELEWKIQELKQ

[34] = target: T34, 4H491-bN; assay: two-hybrid library CCNG1
T34 chain: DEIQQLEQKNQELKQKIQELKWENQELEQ

[35] = target: T35, 4H2944-bN; assay: two-hybrid library CCNG1
T35 chain: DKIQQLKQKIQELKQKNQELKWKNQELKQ

[36] = target: T36, 4H2883-bN; assay: two-hybrid library CCNG1
T36 chain: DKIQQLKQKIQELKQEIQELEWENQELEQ

[37] = target: T37, 4H48-bN; assay: two-hybrid library CCNG1
T37 chain: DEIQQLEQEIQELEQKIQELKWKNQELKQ

[38] = target: T38, APC6108-AA; assay: two-hybrid library CCmax; settings: mean of both orientations
T38 chain: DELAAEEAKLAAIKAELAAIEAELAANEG

[39] = target: T39, APC1434-AA; assay: two-hybrid library CCmax; settings: mean of both orientations
T39 chain: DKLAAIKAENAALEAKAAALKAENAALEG

[40] = target: T40, APC9096-AA; assay: two-hybrid library CCmax; settings: mean of both orientations
T40 chain: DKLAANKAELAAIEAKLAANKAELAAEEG

[41] = target: T41, APC1015-AA; assay: two-hybrid library CCmax; settings: mean of both orientations
T41 chain: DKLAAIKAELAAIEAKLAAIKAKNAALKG

[42] = target: T42, APC8191-AA; assay: two-hybrid library CCmax; settings: mean of both orientations
T42 chain: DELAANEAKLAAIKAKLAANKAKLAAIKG

[43] = target: T43, APC2405-AA; assay: two-hybrid library CCmax; settings: mean of both orientations
T43 chain: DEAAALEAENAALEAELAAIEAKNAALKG

[44] = target: T44, APC2237-AA; assay: two-hybrid library CCmax; settings: mean of both orientations
T44 chain: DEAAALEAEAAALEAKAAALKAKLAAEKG

[45] = target: T45, 4H3330-AA; assay: two-hybrid library CCmax; settings: mean of both orientations
T45 chain: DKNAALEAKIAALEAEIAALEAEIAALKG

[46] = target: T46, APC3645-AA; assay: two-hybrid library CCmax; settings: mean of both orientations
T46 chain: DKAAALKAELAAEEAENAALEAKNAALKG

[47] = target: T47, 4H2148-AA; assay: two-hybrid library CCmax
T47 chain: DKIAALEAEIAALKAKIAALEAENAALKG

[48] = target: T48, 4H2447-AA; assay: two-hybrid library CCmax; settings: mean of both orientations
T48 chain: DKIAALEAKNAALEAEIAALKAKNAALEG

[49] = target: T49, APC7099-AA; assay: two-hybrid library CCmax; settings: mean of both orientations
T49 chain: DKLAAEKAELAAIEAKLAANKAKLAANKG

[50] = target: T50, 4H807-AA; assay: two-hybrid library CCmax; settings: mean of both orientations
T50 chain: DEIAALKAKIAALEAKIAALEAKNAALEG

[51] = target: T51, APC8910-AA; assay: two-hybrid library CCmax; settings: mean of both orientations
T51 chain: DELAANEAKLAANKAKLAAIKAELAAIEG

[52] = target: T52, APC4436-AA; assay: two-hybrid library CCmax; settings: mean of both orientations
T52 chain: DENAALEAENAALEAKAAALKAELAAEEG

[53] = target: T53, 4H2290-AA; assay: two-hybrid library CCmax; settings: mean of both orientations
T53 chain: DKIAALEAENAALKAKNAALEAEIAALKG

[54] = target: T54, 4H2458-AA; assay: two-hybrid library CCmax; settings: mean of both orientations
T54 chain: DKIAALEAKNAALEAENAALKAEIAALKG

[55] = target: T55, APC9319-AA; assay: two-hybrid library CCmax; settings: mean of both orientations
T55 chain: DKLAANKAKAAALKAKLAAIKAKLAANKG

[56] = target: T56, 4H716-AA; assay: two-hybrid library CCmax; settings: mean of both orientations
T56 chain: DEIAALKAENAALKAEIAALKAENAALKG

[57] = target: T57, 4H733-AA; assay: two-hybrid library CCmax; settings: mean of both orientations
T57 chain: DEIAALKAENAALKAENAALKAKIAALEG

[58] = target: T58, APC4264-AA; assay: two-hybrid library CCmax; settings: mean of both orientations
T58 chain: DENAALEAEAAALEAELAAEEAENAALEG

[59] = target: T59, APC232-AA; assay: two-hybrid library CCmax; settings: mean of both orientations
T59 chain: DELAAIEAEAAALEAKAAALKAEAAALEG

[60] = target: T60, APC4011-AA; assay: two-hybrid library CCmax; settings: mean of both orientations
T60 chain: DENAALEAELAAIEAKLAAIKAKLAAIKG

[61] = target: T61, APC5383-AA; assay: two-hybrid library CCmax; settings: mean of both orientations
T61 chain: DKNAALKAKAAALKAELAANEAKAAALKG

[62] = target: T62, 4H2944-bH; assay: two-hybrid library CCNG1
T62 chain: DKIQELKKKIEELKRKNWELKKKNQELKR

[63] = target: T63, 4H342-bH; assay: two-hybrid library CCNG1
T63 chain: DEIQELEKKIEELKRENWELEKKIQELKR

[64] = target: T64, 4H48-bH; assay: two-hybrid library CCNG1
T64 chain: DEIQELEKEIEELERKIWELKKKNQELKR

[65] = target: T65, 4H491-bH; assay: two-hybrid library CCNG1
T65 chain: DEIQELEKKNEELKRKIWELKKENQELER

[66] = target: T66, 4H2937-bH; assay: two-hybrid library CCNG1
T66 chain: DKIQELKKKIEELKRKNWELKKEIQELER

[67] = target: T67, 4H2883-bH; assay: two-hybrid library CCNG1
T67 chain: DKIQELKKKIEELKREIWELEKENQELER

Binder: DEIAQLKQEIAELEQKNAELEWKNAQLKQ [4H568-bA]
interaction score [11]: -0.527
interaction score [12]: 1.33
interaction score [13]: -0.587
interaction score [14]: -1.26
interaction score [15]: 1.54
interaction score [16]: -1.16
interaction score [17]: -0.468
interaction score [18]: -1.27
interaction score [19]: -0.986
interaction score [20]: 0.0841
interaction score [21]: -1.48
interaction score [22]: -0.352
interaction score [23]: -1.54
interaction score [24]: -0.305
interaction score [25]: -0.657

Binder: DKIAQLKQKIAELKQEIAELEWENAQLEQ [4H2883-bA]
interaction score [26]: -0.886
interaction score [27]: -0.134
interaction score [28]: 0.793
interaction score [29]: 1.3
interaction score [30]: 1.15
interaction score [31]: 0.521

Binder: DKIAALEAEIAALKAKIAALEAENAALKG [4H2148-AA]
interaction score [38]: -1.13
interaction score [39]: -1.39
interaction score [40]: -1.24
interaction score [41]: 0.959
interaction score [42]: -1.4
interaction score [43]: -1.19
interaction score [44]: -1.14
interaction score [45]: -0.193
interaction score [46]: -1.31
interaction score [47]: 1.63
interaction score [48]: -1.42
interaction score [49]: -1.55
interaction score [50]: -1.41
interaction score [51]: -1.35
interaction score [52]: -1.32
interaction score [53]: -1.47
interaction score [54]: -1.46
interaction score [55]: -1.42
interaction score [56]: -1.22
interaction score [57]: -1.59
interaction score [58]: -1.81
interaction score [59]: -1.38
interaction score [60]: -0.327
interaction score [61]: -1.66

The remaining lines, values ahead:

interaction score [1]: -1.32
interaction score [2]: -0.807
interaction score [3]: -1.72
interaction score [4]: -1.65
interaction score [5]: -2.51
interaction score [6]: -1.35
interaction score [7]: -2.15
interaction score [8]: -0.695
interaction score [9]: -1.2
interaction score [10]: -1.04
Binder: DKNEQLKEKISELKEKIEQLKEENQSLEY [P12mSN]

interaction score [32]: -1.33
interaction score [33]: -1.84
interaction score [34]: -0.669
interaction score [35]: 0.237
interaction score [36]: 0.96
interaction score [37]: 2
Binder: DKIQQLKQKIQELKQEIQELEWENQELEQ [4H2883-bN]

interaction score [62]: 0.783
interaction score [63]: -0.175
interaction score [64]: 1.17
interaction score [65]: 0.298
interaction score [66]: 0.674
interaction score [67]: 1.73
Binder: DKIQELKKKIEELKREIWELEKENQELER [4H2883-bH]
